According to US20210371527A1 (IMAGINAB, published 2021):

Target: T1, human CD4 on HPB-ALL cells (human, UniProt P01730 26-458)
T1 construct: The assay used HPB-ALL cells; no signal peptide limits are stated; also called HPB-ALL cells (human T cell leukemia, DSMZ ACC 483); HPC-ALL
Assay: flow cytometry on HPB-ALL cells

| Binder | binding result |
| --- | --- |
| deferoxamine conjugated humanized IAB41-1 minibody (other, deferoxamine (Df) chelator conjugated; sites of conjugation not stated, also called Df-Hu-IAB41-1) EIVLTQSPATLSLSPGERATLSCSARSSVSYLYWYQQKPGQAPRLLIYDTSNLASGIPDRFSGSGSGTDFTLTISRLEPEDAAVYYCQQWSDYPLTFGGGTKLEIKGSTSGGGSGGGSGGGGSSQVQLVQSGAEVKKPGASVKVSCKASGYSFANYWMHWVRQAPGQRLEWIGALYPGNVDTTYNQKFQGRVTITRDTSASTAYMELSSLRSEDTAVYYCTRMGTTLEAPLDYWGQGTLVTVSSEPKSSDKTHTCPPCPPCGGGSSGGGSGGQPREPQVYTLPPSREEMTKNQVSLTCLVKGFYPSDIAVEWESNGQPENNYKTTPPVLDSDGSFFLYSKLTVDKSRWQQGNVFSCSVMHEALHNHYTQKSLSLSPG | binds |
| humanized IAB41-1 minibody (other, also called Hu-IAB41-1; Construct 41-1) EIVLTQSPATLSLSPGERATLSCSARSSVSYLYWYQQKPGQAPRLLIYDTSNLASGIPDRFSGSGSGTDFTLTISRLEPEDAAVYYCQQWSDYPLTFGGGTKLEIKGSTSGGGSGGGSGGGGSSQVQLVQSGAEVKKPGASVKVSCKASGYSFANYWMHWVRQAPGQRLEWIGALYPGNVDTTYNQKFQGRVTITRDTSASTAYMELSSLRSEDTAVYYCTRMGTTLEAPLDYWGQGTLVTVSSEPKSSDKTHTCPPCPPCGGGSSGGGSGGQPREPQVYTLPPSREEMTKNQVSLTCLVKGFYPSDIAVEWESNGQPENNYKTTPPVLDSDGSFFLYSKLTVDKSRWQQGNVFSCSVMHEALHNHYTQKSLSLSPG | binds |
